# From patent publication US9512196B2, “Short-form human MD-2 as a negative regulator of toll-like receptor 4 signaling” (Cedars-Sinai Medical Center, priority 2008, dated 2016)
# B1: MD-2s: alternatively spliced isoform of human MD-2 lacking exon 2, with D38G substitution; expressed and secreted protein sequences in Table 1 (protein, listed as Homo sapiens)
# chain 1: MLPFLFFSTLFSSIFTEAQKQYWVCNSSDASISYTYCGRDLKQLYFNLYITVNTMNLPKRKEVICRGSDDDYSFCRALKGETVNTTISFSFKGIKFSKGKYKCVVEAISGSPEEMLFCLEFVILHQPNSN
# chain 2: EAQKQYWVCNSSDASISYTYCGRDLKQLYFNLYITVNTMNLPKRKEVICRGSDDDYSFCRALKGETVNTTISFSFKGIKFSKGKYKCVVEAISGSPEEMLFCLEFVILHQPNSN
# Experiments:
# [1] = system: lung inflammation induced by LPS; assay: LPS-induced lung inflammation in mice after in vivo plasmid transfection; set-up: species or system mouse
# Procedure: (A) MD-2s expression can be detected following in vivo transfection. RNA was isolated from lung tissue of wild-type mice at 48 h post in vivo transfection with control vector (lane 1), Myc-MD2 (lane 2) or a plasmid encoding MycMD-2s (lane 3) and reverse transcribed into cDNA. RT-PCR using human MD-2-specific primers (lanes 1-3) or murine GAPDH primers (lanes 4-6), was then performed. (B-E) Wild-type mice were transfected with control vector (EV, open bars) or a plasmid encoding MD-2s (black bars) 48 h before being challenged intratracheally with PBS or 10 μg of LPS, for 24 h. MD-2s expression reduced (B) IL-6 concentration in bronchoalveolar lavage fluid (BALF), (C) KC concentration in the lung homogenate, and (D) recruitment of polymorphonuclear leukocytes (PMN) into the lung.
# TLR4 = target: T1, TLR4 (Homo sapiens, UniProt O00206); assay: Confocal co-localization with CFP-tagged TLR4 in HEK293 cells; format: cell-based; conditions: confocal analysis, anti-Myc staining
# T1 construct: expressed in transfected cells; host or cells: HEK293
# T1 sequence (O00206 24-839): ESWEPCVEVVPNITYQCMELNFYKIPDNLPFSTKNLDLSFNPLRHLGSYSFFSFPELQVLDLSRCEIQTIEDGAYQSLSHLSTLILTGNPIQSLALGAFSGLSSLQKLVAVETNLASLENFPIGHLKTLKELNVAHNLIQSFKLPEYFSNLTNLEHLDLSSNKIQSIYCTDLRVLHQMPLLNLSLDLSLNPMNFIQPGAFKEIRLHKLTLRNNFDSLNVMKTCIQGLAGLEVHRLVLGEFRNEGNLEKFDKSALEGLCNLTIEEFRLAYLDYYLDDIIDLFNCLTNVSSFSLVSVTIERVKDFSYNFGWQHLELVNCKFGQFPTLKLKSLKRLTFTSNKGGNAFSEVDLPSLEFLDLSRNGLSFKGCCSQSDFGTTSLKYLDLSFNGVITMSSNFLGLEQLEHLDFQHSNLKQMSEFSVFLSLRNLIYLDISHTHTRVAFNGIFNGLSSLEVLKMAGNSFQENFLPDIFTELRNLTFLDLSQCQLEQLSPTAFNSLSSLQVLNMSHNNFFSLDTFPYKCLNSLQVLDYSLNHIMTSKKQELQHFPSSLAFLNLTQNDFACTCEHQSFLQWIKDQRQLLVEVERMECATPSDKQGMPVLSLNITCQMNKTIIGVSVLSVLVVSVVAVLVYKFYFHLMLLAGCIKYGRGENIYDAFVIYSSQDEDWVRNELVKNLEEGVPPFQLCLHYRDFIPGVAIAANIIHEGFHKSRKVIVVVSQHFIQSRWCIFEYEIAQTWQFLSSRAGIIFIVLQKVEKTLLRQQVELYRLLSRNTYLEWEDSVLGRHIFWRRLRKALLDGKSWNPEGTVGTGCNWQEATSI
# Procedure: (A) Cells stably expressing CFP-tagged TLR4 were transiently transfected with plasmids encoding wild-type MD-2 (upper panels) or MD-2s (lower panels). 24 h later, cells were incubated with an anti-Myc antibody and cross-liked with Alexa 647-conjugated anti-mouse polyclonal secondary antibody. (B) HEK293 cells were transiently transfected with a plasmid encoding for Flag-tagged TLR4 (lane 2) and cotransfected with either a Myc-tagged MD-2 (lane 3) or a Myc-tagged MD-2s (lanes 1 and 4) expressing plasmid. Co-immunoprecipitation experiments were then performed using an anti-Flag antibody (lanes 2-4) or an IgG isotype control antibody (lane 1). Samples were fractionated by SDS-PAGE and immunoblotting with an anti-Myc antibody was performed. Experiment shown is representative of 4 separate experiments.
# To address this possibility, co-localization studies to examine the cellular distribution of MD-2s with respect to TLR4 were performed. HEK293 cells stably expressing TLR4CFP were subsequently transiently transfected with a plasmid encoding either MD-2 (FIG. 4A, upper panel) or MD-2s (FIG. 4A, lower panel) and stained with an anti-Myc antibody. […] Next whether MD-2s is physically associated with TLR4 was assessed. […]
# [2] = plasmid encoding MD-2s 48 h before 10 μg LPS intratracheally, 24 h, vs control vector
molecule,measurement,setting,value
B1,Percentage of GR-1+CD11b+ cells in the lung following LPS challenge,"[1]; flow cytometry, control without MD-2s expression 66.7%",26.1%
same,IL-6 concentration in bronchoalveolar lavage fluid (BALF),[1]; [2],reduced
same,KC concentration in the lung homogenate,[1]; [2],reduced
same,Recruitment of polymorphonuclear leukocytes (PMN) into the lung,[1]; [2],reduced
same,Cellular distribution with respect to TLR4,TLR4,same cellular distribution
